Results from the supplement of paper PMC9112550, “Optimization of the antimicrobial peptide Bac7 by deep mutational scanning” (BMC Biology, 2022).

Test system: Escherichia coli TOP10
Test: shrunken log2 fold change of peptide-encoding DNA abundance (4.5 h post-induction vs induction); higher = less antimicrobial activity (less host growth inhibition)
Details: time post-induction: 4.5 h; library: site-saturation at positions 5, 18, 19, 20
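Also: peptides expressed intracellularly from a pBAD plasmid library in pooled LB shake-flask culture, induced with 0.3% L-arabinose, DNA abundance read by NGS, three biological replicates, DESeq2 with apeglm shrinkage.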

| Sequence | shrunken log2 fold change |
| --- | --- |
| RRIRCRPPRLPRPRPRPTEHPRP | 0.00581 |
| RRIRTRPPRLPRPRPRPGNLPRP | 0.021 |
| RRIRSRPPRLPRPRPRPLRRPRP | 0.404 |
| RRIRCRPPRLPRPRPRPTFSPRP | -0.187 |
| RRIRIRPPRLPRPRPRPRTMPRP | -0.377 |
| RRIRDRPPRLPRPRPRPDSAPRP | -0.0433 |
| RRIRWRPPRLPRPRPRPIRRPRP | -0.00924 |
| RRIRQRPPRLPRPRPRPCLQPRP | -0.112 |
| RRIRERPPRLPRPRPRPRSFPRP | -0.331 |
| RRIRGRPPRLPRPRPRPGIMPRP | 0.374 |
| RRIRTRPPRLPRPRPRPYHPPRP | -0.304 |
| RRIRKRPPRLPRPRPRPATCPRP | 0.0272 |
| RRIRLRPPRLPRPRPRPAQCPRP | -0.23 |
| RRIRNRPPRLPRPRPRPFMVPRP | -0.646 |
| RRIRNRPPRLPRPRPRPWSRPRP | 0.14 |
| RRIRNRPPRLPRPRPRPMFKPRP | -0.386 |
| RRIRARPPRLPRPRPRPIMCPRP | -0.0139 |
| RRIRVRPPRLPRPRPRPRDYPRP | -0.0816 |
| RRIRCRPPRLPRPRPRPVQVPRP | -0.164 |
| RRIRQRPPRLPRPRPRPNSYPRP | -0.225 |
| RRIRVRPPRLPRPRPRPAIAPRP | 0.107 |
| RRIRIRPPRLPRPRPRPFSYPRP | 3.51 |
| RRIRHRPPRLPRPRPRPMRTPRP | -0.11 |
| RRIRQRPPRLPRPRPRPHMRPRP | 0.36 |
| RRIRMRPPRLPRPRPRPYMYPRP | 0.0981 |

| Sequence | shrunken log2 fold change |
| --- | --- |
| RRIRPRPPRLPRPRPRPERWPRP | 0.56 |
| RRIRARPPRLPRPRPRPTSPPRP | 0.292 |
| RRIRKRPPRLPRPRPRPNDRPRP | -0.0503 |
| RRIRTRPPRLPRPRPRPGFDPRP | -0.164 |
| RRIRHRPPRLPRPRPRPFCWPRP | 0.252 |
| RRIRTRPPRLPRPRPRPTDSPRP | -0.106 |
| RRIRDRPPRLPRPRPRPTLDPRP | 0.784 |
| RRIRKRPPRLPRPRPRPEFDPRP | 2.46 |
| RRIRSRPPRLPRPRPRPAWFPRP | 0.171 |
| RRIRPRPPRLPRPRPRPQCFPRP | 0.185 |
| RRIRVRPPRLPRPRPRPHFMPRP | 1.55 |
| RRIRTRPPRLPRPRPRPQWTPRP | -1.27 |
| RRIRFRPPRLPRPRPRPMCHPRP | -0.325 |
| RRIRNRPPRLPRPRPRPISFPRP | -0.0972 |
| RRIRPRPPRLPRPRPRPRNCPRP | 0.0981 |
| RRIRRRPPRLPRPRPRPDKHPRP | 0.157 |
| RRIRVRPPRLPRPRPRPNAIPRP | 0.0894 |
| RRIRPRPPRLPRPRPRPKQSPRP | 0.142 |
| RRIRDRPPRLPRPRPRPLGTPRP | 0.706 |
| RRIRIRPPRLPRPRPRPRNPPRP | -0.0124 |
| RRIRLRPPRLPRPRPRPHMNPRP | -0.686 |
| RRIRWRPPRLPRPRPRPEFNPRP | 0.609 |
| RRIRTRPPRLPRPRPRPMSVPRP | -0.00965 |
| RRIRGRPPRLPRPRPRPAPRPRP | 1.85 |
| RRIRNRPPRLPRPRPRPHFRPRP | 0.0231 |

| Sequence | shrunken log2 fold change |
| --- | --- |
| RRIRERPPRLPRPRPRPDVPPRP | -0.117 |
| RRIRKRPPRLPRPRPRPYWYPRP | -0.667 |
| RRIRPRPPRLPRPRPRPAKMPRP | 0.0216 |
| RRIRRRPPRLPRPRPRPYHTPRP | -1.28 |
| RRIRWRPPRLPRPRPRPAWSPRP | 0.265 |
| RRIRCRPPRLPRPRPRPRMGPRP | 0.0392 |
| RRIRIRPPRLPRPRPRPPSPPRP | 0.168 |
| RRIRLRPPRLPRPRPRPRIHPRP | -0.081 |
| RRIRFRPPRLPRPRPRPTWHPRP | -0.0992 |
| RRIRARPPRLPRPRPRPGRDPRP | 0.671 |
| RRIRPRPPRLPRPRPRPPINPRP | -0.158 |
| RRIRVRPPRLPRPRPRPAARPRP | 0.47 |
| RRIRQRPPRLPRPRPRPLRKPRP | 0.356 |
| RRIRFRPPRLPRPRPRPQKSPRP | -0.285 |
| RRIRKRPPRLPRPRPRPVFQPRP | 0.447 |
| RRIRCRPPRLPRPRPRPHSLPRP | -0.493 |
| RRIRIRPPRLPRPRPRPCVEPRP | -0.0421 |
| RRIRIRPPRLPRPRPRPMNFPRP | -0.0453 |
| RRIRWRPPRLPRPRPRPEERPRP | 0.0923 |
| RRIRWRPPRLPRPRPRPNKRPRP | 0.149 |
| RRIRQRPPRLPRPRPRPDYGPRP | -0.159 |
| RRIRGRPPRLPRPRPRPSTCPRP | 0.18 |
| RRIRNRPPRLPRPRPRPMSLPRP | -0.0381 |
| RRIRVRPPRLPRPRPRPDDAPRP | 0.134 |
| RRIRNRPPRLPRPRPRPQFRPRP | 0.00019 |

| Sequence | shrunken log2 fold change |
| --- | --- |
| RRIRKRPPRLPRPRPRPETYPRP | -0.00198 |
| RRIRERPPRLPRPRPRPVCHPRP | -0.309 |
| RRIRQRPPRLPRPRPRPINMPRP | -0.28 |
| RRIRDRPPRLPRPRPRPRRYPRP | 0.247 |
| RRIRIRPPRLPRPRPRPVRFPRP | -0.16 |
| RRIRKRPPRLPRPRPRPGSNPRP | -0.0467 |
| RRIRKRPPRLPRPRPRPKNTPRP | -0.0285 |
| RRIRKRPPRLPRPRPRPYNHPRP | -0.0988 |
| RRIRFRPPRLPRPRPRPNVWPRP | 0.0725 |
| RRIRDRPPRLPRPRPRPGWDPRP | -0.182 |
| RRIRTRPPRLPRPRPRPQIAPRP | -0.0663 |
| RRIRRRPPRLPRPRPRPMDMPRP | 0.0833 |
| RRIRWRPPRLPRPRPRPWEIPRP | 0.124 |
| RRIRCRPPRLPRPRPRPGVIPRP | -0.0294 |
| RRIRPRPPRLPRPRPRPCIPPRP | -0.556 |
| RRIRPRPPRLPRPRPRPWPWPRP | 0.0232 |
| RRIRDRPPRLPRPRPRPRFRPRP | 0.951 |
| RRIRFRPPRLPRPRPRPYSPPRP | -0.324 |
| RRIRSRPPRLPRPRPRPEFMPRP | 0.135 |
| RRIRVRPPRLPRPRPRPRREPRP | 0.495 |
| RRIRNRPPRLPRPRPRPDEHPRP | -0.415 |
| RRIRWRPPRLPRPRPRPMRNPRP | 0.315 |
| RRIRNRPPRLPRPRPRPKFCPRP | -0.198 |
| RRIRERPPRLPRPRPRPNTLPRP | -0.556 |
| RRIRRRPPRLPRPRPRPRIYPRP | -0.0573 |

| Sequence | shrunken log2 fold change |
| --- | --- |
| RRIRARPPRLPRPRPRPAGDPRP | 1.01 |
| RRIRGRPPRLPRPRPRPHRCPRP | -0.0209 |
| RRIRGRPPRLPRPRPRPEWSPRP | 0.644 |
| RRIRDRPPRLPRPRPRPEGTPRP | -0.042 |
| RRIRVRPPRLPRPRPRPHKNPRP | -0.301 |
| RRIRERPPRLPRPRPRPVWMPRP | -0.0846 |
| RRIRKRPPRLPRPRPRPKAVPRP | -0.11 |
| RRIRDRPPRLPRPRPRPATIPRP | 0.0807 |
| RRIRGRPPRLPRPRPRPCSKPRP | 0.09 |
| RRIRIRPPRLPRPRPRPFINPRP | -0.365 |
| RRIRGRPPRLPRPRPRPYFMPRP | -0.389 |
| RRIRTRPPRLPRPRPRPRQAPRP | 0.171 |
| RRIRERPPRLPRPRPRPDPLPRP | 0.00979 |
| RRIRCRPPRLPRPRPRPRRYPRP | -0.0183 |
| RRIRFRPPRLPRPRPRPIAIPRP | -0.149 |
| RRIRYRPPRLPRPRPRPHLGPRP | 0.0406 |
| RRIRYRPPRLPRPRPRPFWQPRP | -0.122 |
| RRIRPRPPRLPRPRPRPVPSPRP | 0.448 |
| RRIRFRPPRLPRPRPRPRCQPRP | 0.24 |
| RRIRHRPPRLPRPRPRPAWEPRP | 0.421 |
| RRIRWRPPRLPRPRPRPDLMPRP | 0.325 |
| RRIRDRPPRLPRPRPRPCTIPRP | -0.23 |
| RRIRARPPRLPRPRPRPEDFPRP | 1.11 |
| RRIRMRPPRLPRPRPRPQCEPRP | -0.00192 |
| RRIRCRPPRLPRPRPRPIVTPRP | 0.0598 |
